For assay [1], the target named is T1, folate receptor 1 (FOLR1) (human, UniProt P15328 25-234). Briefly: flow cytometry, T47D cells. For orientation: A flow cytometer gives signals particle by particle.
In assay [2] the target is T1, folate receptor 1 (FOLR1). Briefly: flow cytometry, T47D cells. This is another data set of the same source.

Read-outs that look alike come from different tables or passages of the source.

T1 sequence (P15328 25-234): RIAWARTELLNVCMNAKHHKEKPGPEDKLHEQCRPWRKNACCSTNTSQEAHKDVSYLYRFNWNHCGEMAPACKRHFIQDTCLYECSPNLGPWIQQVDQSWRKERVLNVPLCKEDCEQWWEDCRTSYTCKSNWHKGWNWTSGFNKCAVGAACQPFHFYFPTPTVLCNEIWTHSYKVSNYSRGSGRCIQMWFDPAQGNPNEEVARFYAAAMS

B1: huMOV19-14 conjugate (antibody, V domains shown)
VH: QVQLVQSGAEVVKPGASVKISCKASGYTFTGYFMNWVKQSPGQSLEWIGRIHPYDGDTFYNQKFQGKATLTVDKSSNTAHMELLSLTSEDFAVYYCTRYDGSRAMDYWGQGTTVTVSS
VL: DIVLTQSPLSLAVSLGQPAIISCKASQSVSFAGTSLMHWYHQKPGQQPRLLIYRASNLEAGVPDRFSGSGSKTDFTLTISPVEAEDAATYYCQQSREYPYTFGGGTKLEIKR
As a reminder, the EC50 is the concentration that produces a half-maximal response. Low values mean greater potency, high ones weaker potency. For the molecule B1, the EC50 in assay [1] turned out to be 0.379 nM.

B2: huMOV19-90 conjugate (antibody, V domains shown)
VH: QVQLVQSGAEVVKPGASVKISCKASGYTFTGYFMNWVKQSPGQSLEWIGRIHPYDGDTFYNQKFQGKATLTVDKSSNTAHMELLSLTSEDFAVYYCTRYDGSRAMDYWGQGTTVTVSS
VL: DIVLTQSPLSLAVSLGQPAIISCKASQSVSFAGTSLMHWYHQKPGQQPRLLIYRASNLEAGVPDRFSGSGSKTDFTLTISPVEAEDAATYYCQQSREYPYTFGGGTKLEIKR
Regarding B2, in assay [2], the EC50 is 0.371 nM.
